Test results as given in patent US20210324076A1 (AMPHIVENA THERAPEUTICS, published 2021).

Target: human CD3 (human, UniProt P07766 23-207; P09693 23-182; P04234 22-171; P20963 22-164)
Assay: cell-based or functional assay

Chain of human CD3 (P07766 23-207, chain 1 of 4): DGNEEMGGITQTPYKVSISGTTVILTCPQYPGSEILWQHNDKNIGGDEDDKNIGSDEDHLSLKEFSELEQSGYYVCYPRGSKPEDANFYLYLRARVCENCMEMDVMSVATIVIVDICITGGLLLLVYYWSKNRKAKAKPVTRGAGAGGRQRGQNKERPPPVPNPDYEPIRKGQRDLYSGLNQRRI
Chain of human CD3 (P09693 23-182, chain 2 of 4): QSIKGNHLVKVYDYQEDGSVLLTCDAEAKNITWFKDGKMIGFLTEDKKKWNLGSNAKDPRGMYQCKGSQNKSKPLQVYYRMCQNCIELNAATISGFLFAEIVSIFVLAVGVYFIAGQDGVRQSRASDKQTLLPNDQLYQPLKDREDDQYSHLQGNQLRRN
Chain of human CD3 (P04234 22-171, chain 3 of 4): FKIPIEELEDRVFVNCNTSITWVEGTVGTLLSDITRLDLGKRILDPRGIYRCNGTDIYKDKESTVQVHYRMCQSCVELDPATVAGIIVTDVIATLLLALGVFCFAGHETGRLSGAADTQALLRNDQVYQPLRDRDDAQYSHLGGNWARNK
Chain of human CD3 (P20963 22-164, chain 4 of 4): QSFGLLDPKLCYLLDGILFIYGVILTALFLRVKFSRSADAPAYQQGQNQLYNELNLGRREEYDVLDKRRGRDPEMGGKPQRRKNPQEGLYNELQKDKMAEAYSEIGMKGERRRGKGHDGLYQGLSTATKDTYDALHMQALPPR

Binder	CD25 Induction EC50 (PBMC, 24 h) [nM]	CD69 Induction EC50 (PBMC, 24 h) [nM]
CD33/CD3 2×2 T-cell engager 20 (bispecific antibody) DIQMTQSPSSLSASVGDRVTITCRSSTGAVTTSNYANWVQQKPGKAPKGLIGGTNKRAPGVPSRFSGSLIGTDFTLTISSLQPEDFATYYCALWYSNLWVFGQGTKVEIKGGSGGSQVQLVQSGAEVKKPGASVKVSCKASGYTFTSYYMHWVRQAPGQGLEWMGIINPSGGSTSYAQKFQGRVTMTRDTSTSTVYMELSSLRSEDTAVYYCARDVVPAAIDYYGMDVWGQGTTVTVSSGGSGQSVLTQPPSASGTPGQRVTISCSGSSSNIGSNTVNWYQQLPGTAPKLLIYSDNQRPSGVPDRFSGSKSGSSASLAISGLQSDDEADYYCATWDDSLNGAVFGGGTKLTVLGGSGGSEVQLVESGGGLVQPGGSLRLSCAASGFTFSTYAMNWVRQAPGKGLEWVGRIRSKYNNYATYYADSVKDRFTISRDDSKNSLYLQMNSLKTEDTAVYYCARHGNFGNSYVSWFAYWGQGTLVTVSSAAAGSHHHHHH	0.098	0.075
CD33/CD3 2×2 T-cell engager 10 (bispecific antibody) DIQMTQSPSSLSASVGDRVTITCRSSTGAVTTSNYANWVQQKPGKAPKGLIGGTNKRAPGVPSRFSGSLIGDKATLTISSLQPEDFATYYCALWYSNLWVFGQGTKVEIKGGSGGSQVQLVQSGAEVKKPGASVKVSCKASGYTFTSYDINWVRQAPGQGLEWMGWMNPNSGNTGFAQKFQGRVTMTRDTSTSTVYMELSSLRSEDTAVYYCARDRANTDYSFGMDVWGQGTLVTVSSGGSGQSVLTQPPSASGTPGQRVTISCSGSRSNIGSNTVNWYQQLPGTAPKLLIYGNNQRPSGVPDRFSGSKSGTSASLAISGLQSEDEADYYCATWDDSLIGWVFGGGTKLTVLGGSGGSEVQLVESGGGLVQPGGSLRLSCAASGFTFSTYAMNWVRQAPGKGLEWVGRIRSKYNNYATYYADSVKDRFTISRDDSKNSLYLQMNSLKTEDTAVYYCARHGNFGNSYVSWFAYWGQGTLVTVSSAAAGSHHHHHH	0.01	0.006
CD33/CD3 2×2 T-cell engager 01 (bispecific antibody) DIQMTQSPSSLSASVGDRVTITCRSSTGAVTTSNYANWVQQKPGKAPKGLIGGTNKRAPGVPARFSGSGSGTDFTLTISSLQPEDFATYYCALWYSNLWVFGQGTKVEIKGGSGGSQVQLVQSGAEVKKPGASVKVSCKASGYTFTSYDINWVRQAPGQGLEWMGWMNPNSGNTGFAQKFQGRVTMTRDTSTSTVYMELSSLRSEDTAVYYCARDRANTDFSYGMDVWGQGTLVTVSSGGSGQSVLTQPPSASGTPGQRVTISCSGSRSNIGSNTVNWYQQLPGTAPKLLIYGNNQRPSGVPDRFSGSKSGTSASLAISGLQSEDEADYYCATWDDSLIGWVFGGGTKLTVLGGSGGSEVQLVESGGGLVQPGGSLRLSCAASGFTFSTYAMNWVRQAPGKGLEWVGRIRSKYNNYATYYADSVKDRFTISRDDSKNSLYLQMNSLKTEDTAVYYCARHGNFGNSYVSWFAYWGQGTLVTVSSAAAGSHHHHHH	0.092	0.091
CD33/CD3 2×2 T-cell engager 04 (bispecific antibody) DIQMTQSPSSLSASVGDRVTITCRSSTGAVTTSNYANWVQQKPGKAPKGLIGGTNKRAPGVPARFSGSGSGTDFTLTISSLQPEDFATYYCALWYSNLWVFGQGTKVEIKGGSGGSQVQLVQSGAEVKKPGASVKVSCKASGYTFTSYDINWVRQAPGQGLEWMGWMNPNSGNTGFAQKFQGRVTMTRDTSTSTVYMELSSLRSEDTAVYYCARDRANTDYSLGMDVWGQGTLVTVSSGGSGQSVLTQPPSASGTPGQRVTISCSGSRSNIGSNTVNWYQQLPGTAPKLLIYGNNQRPSGVPDRFSGSKSGTSASLAISGLQSEDEADYYCATWDDSLIGWVFGGGTKLTVLGGSGGSEVQLVESGGGLVQPGGSLRLSCAASGFTFSTYAMNWVRQAPGKGLEWVGRIRSKYNNYATYYADSVKDRFTISRDDSKNSLYLQMNSLKTEDTAVYYCARHGNFGNSYVSWFAYWGQGTLVTVSSAAAGSHHHHHH	0.094	0.062

Next, values leading:

CD25 Induction EC50 (PBMC, 24 h) [nM]	CD69 Induction EC50 (PBMC, 24 h) [nM]	Binder
0.134	0.065	CD33/CD3 2×2 T-cell engager 07 (bispecific antibody) DIQMTQSPSSLSASVGDRVTITCRSSTGAVTTSNYANWVQQKPGKAPKALIGGTNKRAPGVPSRFSGSLIGDKATLTISSLQPEDFATYYCALWYSNLWVFGQGTKVEIKGGSGGSQVQLQESGGGVVQPGRSLRLSCAASGFSFSNYGIHWVRQAPGKGLEWVALISYDGNKKFYADSVKGRFAISRDTSKNTVDLQMTSLRPEDTAVYYCAKDRLESAAFDYWGQGTLVTVSSGGSGGSSYELTQPPSVSVAPGQTAMITCGGNNIGSTTVHWYQQKPGQAPVLVVYDDNERPSGIPERFSGSNSGSTATLTINRVEAGDEADYYCQVWDSGSDHVVFGGGTKLTVLGGSGGSEVQLVESGGGLVQPGGSLRLSCAASGFTFSTYAMNWVRQAPGKGLEWVGRIRSKYNNYATYYADSVKDRFTISRDDSKNSLYLQMNSLKTEDTAVYYCARHGNFGNSYVSYFAYWGQGTLVTVSSAAAGSHHHHHH
0.011	0.005	CD33/CD3 2×2 T-cell engager 11 (bispecific antibody) DIQMTQSPSSLSASVGDRVTITCRSSTGAVTTSNYANWVQQKPGKAPKGLIGGTNKRAPGVPSRFSGSLIGDKATLTISSLQPEDFATYYCALWYSNLWVFGQGTKVEIKGGSGGSQVQLVQSGAEVKKPGASVKVSCKASGYTFTSYDINWVRQAPGQGLEWMGWMNPNSGNTGFAQKFQGRVTMTRDTSTSTVYMELSSLRSEDTAVYYCARDRANTDYSLGMDVWGQGTLVTVSSGGSGQSVLTQPPSASGTPGQRVTISCSGSRSNIGSNTVNWYQQLPGTAPKLLIYGNNQRPSGVPDRFSGSKSGTSASLAISGLQSEDEADYYCATWDDSLIGWVFGGGTKLTVLGGSGGSEVQLVESGGGLVQPGGSLRLSCAASGFTFSTYAMNWVRQAPGKGLEWVGRIRSKYNNYATYYADSVKDRFTISRDDSKNSLYLQMNSLKTEDTAVYYCARHGNFGNSYVSWFAYWGQGTLVTVSSAAAGSHHHHHH
0.03	0.022	CD33/CD3 2×2 T-cell engager 13 (bispecific antibody) DIQMTQSPSSLSASVGDRVTITCRSSTGAVTTSNYANWVQQKPGKAPKGLIGGTNKRAPGVPSRFSGSLIGTDFTLTISSLQPEDFATYYCALWYSNLWVFGQGTKVEIKGGSGGSQVQLVQSGAEVKKPGASVKVSCKASGYTFTSYDINWVRQAPGQGLEWMGWMNPNSGNTGFAQKFQGRVTMTRDTSTSTVYMELSSLRSEDTAVYYCARDRAVTDYYYGMDVWGQGTLVTVSSGGSGQSVLTQPPSASGTPGQRVTISCSGSRSNIGSNTVNWYQQLPGTAPKLLIYGNNQRPSGVPDRFSGSKSGTSASLAISGLQSEDEADYYCATWDDSLIGWVFGGGTKLTVLGGSGGSEVQLVESGGGLVQPGGSLRLSCAASGFTFSTYAMNWVRQAPGKGLEWVGRIRSKYNNYATYYADSVKDRFTISRDDSKNSLYLQMNSLKTEDTAVYYCARHGNFGNSYVSWFAYWGQGTLVTVSSAAAGSHHHHHH
0.011	0.007	CD33/CD3 2×2 T-cell engager 09 (bispecific antibody) DIQMTQSPSSLSASVGDRVTITCRSSTGAVTTSNYANWVQQKPGKAPKGLIGGTNKRAPGVPSRFSGSLIGDKATLTISSLQPEDFATYYCALWYSNLWVFGQGTKVEIKGGSGGSQVQLVQSGAEVKKPGASVKVSCKASGYTFTSYDINWVRQAPGQGLEWMGWMNPNSGNTGFAQKFQGRVTMTRDTSTSTVYMELSSLRSEDTAVYYCARDRANTDFSYGMDVWGQGTLVTVSSGGSGQSVLTQPPSASGTPGQRVTISCSGSRSNIGSNTVNWYQQLPGTAPKLLIYGNNQRPSGVPDRFSGSKSGTSASLAISGLQSEDEADYYCATWDDSLIGWVFGGGTKLTVLGGSGGSEVQLVESGGGLVQPGGSLRLSCAASGFTFSTYAMNWVRQAPGKGLEWVGRIRSKYNNYATYYADSVKDRFTISRDDSKNSLYLQMNSLKTEDTAVYYCARHGNFGNSYVSWFAYWGQGTLVTVSSAAAGSHHHHHH
0.042	0.027	CD33/CD3 2×2 T-cell engager 02 (bispecific antibody) DIQMTQSPSSLSASVGDRVTITCRSSTGAVTTSNYANWVQQKPGKAPKGLIGGTNKRAPGVPARFSGSGSGTDFTLTISSLQPEDFATYYCALWYSNLWVFGQGTKVEIKGGSGGSQVQLVQSGAEVKKPGASVKVSCKASGYTFTSYDINWVRQAPGQGLEWMGWMNPNSGNTGFAQKFQGRVTMTRDTSTSTVYMELSSLRSEDTAVYYCARDRAVTDYYYGMDVWGQGTLVTVSSGGSGQSVLTQPPSASGTPGQRVTISCSGSRSNIGSNTVNWYQQLPGTAPKLLIYGNNQRPSGVPDRFSGSKSGTSASLAISGLQSEDEADYYCATWDDSLIGWVFGGGTKLTVLGGSGGSEVQLVESGGGLVQPGGSLRLSCAASGFTFSTYAMNWVRQAPGKGLEWVGRIRSKYNNYATYYADSVKDRFTISRDDSKNSLYLQMNSLKTEDTAVYYCARHGNFGNSYVSWFAYWGQGTLVTVSSAAAGSHHHHHH
0.006	0.007	CD33/CD3 2×2 T-cell engager 15 (bispecific antibody) DIQMTQSPSSLSASVGDRVTITCRSSTGAVTTSNYANWVQQKPGKAPKALIGGTNKRAPGVPSRFSGSLIGDKATLTISSLQPEDFATYYCALWYSNLWVFGQGTKVEIKGGSGGSQVQLVQSGAEVKKPGASVKVSCKASGYTFTSYDINWVRQAPGQGLEWMGWMNPNSGNTGFAQKFQGRVTMTRDTSTSTVYMELSSLRSEDTAVYYCARDRANTDYSFGMDVWGQGTLVTVSSGGSGQSVLTQPPSASGTPGQRVTISCSGSRSNIGSNTVNWYQQLPGTAPKLLIYGNNQRPSGVPDRFSGSKSGTSASLAISGLQSEDEADYYCATWDDSLIGWVFGGGTKLTVLGGSGGSEVQLVESGGGLVQPGGSLRLSCAASGFTFSTYAMNWVRQAPGKGLEWVGRIRSKYNNYATYYADSVKDRFTISRDDSKNSLYLQMNSLKTEDTAVYYCARHGNFGNSYVSYFAYWGQGTLVTVSSAAAGSHHHHHH
0.117	0.087	CD33/CD3 2×2 T-cell engager 03 (bispecific antibody) DIQMTQSPSSLSASVGDRVTITCRSSTGAVTTSNYANWVQQKPGKAPKGLIGGTNKRAPGVPARFSGSGSGTDFTLTISSLQPEDFATYYCALWYSNLWVFGQGTKVEIKGGSGGSQVQLVQSGAEVKKPGASVKVSCKASGYTFTSYDINWVRQAPGQGLEWMGWMNPNSGNTGFAQKFQGRVTMTRDTSTSTVYMELSSLRSEDTAVYYCARDRANTDYSFGMDVWGQGTLVTVSSGGSGQSVLTQPPSASGTPGQRVTISCSGSRSNIGSNTVNWYQQLPGTAPKLLIYGNNQRPSGVPDRFSGSKSGTSASLAISGLQSEDEADYYCATWDDSLIGWVFGGGTKLTVLGGSGGSEVQLVESGGGLVQPGGSLRLSCAASGFTFSTYAMNWVRQAPGKGLEWVGRIRSKYNNYATYYADSVKDRFTISRDDSKNSLYLQMNSLKTEDTAVYYCARHGNFGNSYVSWFAYWGQGTLVTVSSAAAGSHHHHHH
